Assay results taken from patent US20250019454A1 (BIOCYTOGEN PHARMACEUTICALS BEIJING, published 2025).
Positions count from the first letter of the chain named.

B1: BC-1A8-IgG1 (antibody, V domains shown)
VH: QVQLQQSGPGLVKPSQTLSLTCAISGDSVSSNSAAWNWIRQSPSRGLEWLGRTYYRSKWYNDYALSVKSRITINPETSKNQFSLQLNSVTPEDTAVYYCAREDGVGGTKDYFDYWGQGTLVTVSS
VL: DIQMTQSPSSLSASVGDRVTITCQASQDIDNYLNWYQQKPGKAPKLLIYDVSNLEIGVPSRFSGSGSGTDFTFTISSLQPEDIATYYCQQYDNLPLTFGQGTRLEIK
notes: Fully human VH/VL joined to the human IgG1 subtype, kappa light chain (RenMab mice)
B2: BC-1F4-IgG1 (antibody, V domains shown)
VH: B1 VH with N32D, A34S, A64T, L65V, E76D
VL: B1 VL with D30S, V51A, I56T, S76N, I83F, Y87F, L96I
notes: Human VH/VL joined to the human IgG1 subtype
B3: BC-1F10-IgG1 (antibody, V domains shown)
VH: QVQLQQWGAGLLKPSETLSLICAVYDGSFSGDYWSWIRQPPGKGLEWIGEINHSGSTNYNPSLKSRVTISVDTSKNQFSLKLSSVTAADTAVYYCARGHWNYDYYYGMDVWGQGTTVTVSS
VL: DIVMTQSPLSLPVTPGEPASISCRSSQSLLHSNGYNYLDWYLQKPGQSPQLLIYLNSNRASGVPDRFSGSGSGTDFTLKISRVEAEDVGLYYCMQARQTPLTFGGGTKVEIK
notes: as for B2
B4: BC-1C3-IgG1 (antibody, V domains shown)
VH: QVQLVESGGGVVHPGKSLRLSCAASGFTFNIYGMHWVRQAPGKGLEWVALISYDGNDKYFADSVKGRFTISRDNSKNTLYLQMNSLRAEDTAVYYCAKAVDTAVVTFFDYWGQGTLVTVSS
VL: EIVMTQSPVTLSVSPGERATLSCRASQSVSSNLAWYQQKPGQAPRLLIYSASTRATGIPARFSGSGSGTEFTLTISSLQSEDLAVYYCQQYSNWPFTFGPGTKVDIK
notes: as for B2
B5: BC-1B6-IgG1 (antibody, V domains shown)
VH: QVQLVESGGGVVQPGRSLRLSCAASGFTFSNFGMHWVRQAPGKGLEWVAVIWYEGSDKYYADSVKGRFTISRDNSKNTLYLQMNSLRAEDTAVYYCARDSSWGFLLYGMDVWGQGTTVTVSS
VL: DVVMTQSPLSLPVTLGQPASISCRSSRSLEYSDGNTYLNWFQQRPGQSPRRLIYKVSNRDSGVPDRFSGSGSGTAFTLKISGVEAEDVGVYYCMQGTHWPPTFGGGTKVEIK
notes: as for B2

What was measured:
[1] = molecular target: T1, human TNFR2 (expressed on cells) (human, UniProt P20333 23-461); assay: flow cytometry competition, CHO cells with human TNFR2, antibody 2.5 µg/mL, Biotin-hTNFα 0.5 µg/mL
T1 construct: also called hTNFR2; human TNF Receptor 2
T1 sequence: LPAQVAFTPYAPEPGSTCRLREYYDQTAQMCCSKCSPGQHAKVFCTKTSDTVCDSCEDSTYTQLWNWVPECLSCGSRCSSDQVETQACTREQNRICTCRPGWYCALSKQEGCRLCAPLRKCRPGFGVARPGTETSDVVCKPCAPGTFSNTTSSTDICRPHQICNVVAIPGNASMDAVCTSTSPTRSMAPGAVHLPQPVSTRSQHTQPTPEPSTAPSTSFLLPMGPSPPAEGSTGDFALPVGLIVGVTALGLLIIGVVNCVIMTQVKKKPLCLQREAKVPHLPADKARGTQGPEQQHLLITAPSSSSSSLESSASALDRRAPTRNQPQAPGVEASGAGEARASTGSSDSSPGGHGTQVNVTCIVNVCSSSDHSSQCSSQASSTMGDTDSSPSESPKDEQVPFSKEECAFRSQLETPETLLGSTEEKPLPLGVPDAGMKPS
Experimental: (§1) 30 μl of Biotin-hTNFα (Acro Biosystems, Cat #: TNA-H82E1) was added to each well (with a final concentration of 0.5 μg/mL in each well). The cells with Biotin-hTNFα and the antibodies were incubated at 4° C. for 30 minutes.
(§2) The signals for AF647 and PE were determined by flow cytometry (Thermo Attune NX).

[2] = molecular target: T1, human TNFR2 (expressed on cells); assay: flow cytometry competition, CHO cells with human TNFR2, antibody 10 µg/mL, Biotin-hTNFα 0.5 µg/mL
Experimental: as §1, §2

[3] = molecular target: T1, human TNFR2 (expressed on cells); assay: flow cytometry competition, CHO cells with human TNFR2, antibody 0.039 µg/mL, Biotin-hTNFα 0.5 µg/mL
Experimental: as §1, §2

[4] = molecular target: T2, ΔCRD4-TNFR2 protein (with CRD4 deletion), on CHO-S cells (human, UniProt P20333 23-461); assay: FACS on CHO-S cells with ΔCRD4-TNFR2, AF647 anti-human IgG Fc secondary
T2 construct: also called CHO-SΔCRD4-TNFR2; TNFR2 lacking CRD4
T2 sequence: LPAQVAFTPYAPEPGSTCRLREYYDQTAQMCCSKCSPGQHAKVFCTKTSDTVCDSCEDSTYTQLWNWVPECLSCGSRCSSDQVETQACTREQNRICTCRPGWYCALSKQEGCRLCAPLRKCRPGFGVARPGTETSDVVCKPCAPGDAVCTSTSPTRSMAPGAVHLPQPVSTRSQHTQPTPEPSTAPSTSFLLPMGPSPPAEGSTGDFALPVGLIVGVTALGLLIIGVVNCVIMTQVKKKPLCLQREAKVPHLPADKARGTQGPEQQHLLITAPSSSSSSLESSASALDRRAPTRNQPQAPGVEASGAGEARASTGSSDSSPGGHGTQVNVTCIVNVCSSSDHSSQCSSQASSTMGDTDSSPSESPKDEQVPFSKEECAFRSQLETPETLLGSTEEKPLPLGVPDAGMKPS
Source text: (§3) TNFR2 has four cysteine rich domains (CRD). In another experiment, FACS was used to detect the binding of anti-hTNFR2 antibodies to TNFR2 proteins with different structural domains. Secondary antibody (Alexa Fluor® 647 AffiniPure F(ab′) 2 Fragment Goat Anti-Human IgG, Fcγ fragment specific, Jackson ImmunoResearch Laboratories, Inc., Cat #: 151524) was used. The fluorescence-labeled secondary antibody can attach to the Fc region of the anti-hTNFR2 antibodies so that the anti-hTNFR2 antibodies that are bound to the ΔCRD cells can be detected by FACS. Specifically, ΔCRD1-TNFR2 protein (with CRD1 deleteion), ΔCRD2-TNFR2 protein (with CRD2 deleteion), ΔCRD3-TNFR2 protein (with CRD3 deleteion) or ΔCRD4-TNFR2 protein (with CRD4 deleteion) were expressed in CHO-S cells respectively, and then the binding between the cells and different anti-hTNFR2 antibodies was detected.

[5] = molecular target: T3, ΔCRD1-TNFR2 protein (with CRD1 deletion), on CHO-S cells (human, UniProt P20333 23-461); assay: FACS on CHO-S cells with ΔCRD1-TNFR2, AF647 anti-human IgG Fc secondary
T3 construct: also called CHO-SΔCRD1-TNFR2
T3 sequence: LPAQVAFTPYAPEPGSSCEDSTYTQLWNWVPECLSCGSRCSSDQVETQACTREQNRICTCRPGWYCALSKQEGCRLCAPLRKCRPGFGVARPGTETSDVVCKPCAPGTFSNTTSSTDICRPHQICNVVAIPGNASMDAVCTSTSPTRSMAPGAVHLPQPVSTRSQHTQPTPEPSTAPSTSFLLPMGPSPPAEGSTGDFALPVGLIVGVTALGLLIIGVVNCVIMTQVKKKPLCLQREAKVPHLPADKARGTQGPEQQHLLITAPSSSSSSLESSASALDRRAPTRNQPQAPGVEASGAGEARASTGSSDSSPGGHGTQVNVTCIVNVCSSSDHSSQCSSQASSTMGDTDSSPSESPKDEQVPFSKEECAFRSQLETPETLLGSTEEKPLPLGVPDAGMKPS
Source text: as §3

[6] = molecular target: T4, His-tagged monkey (Crab-eating monkey) TNFR2 (Sino Biological, Cat #: 90102-C08H) (monkey (Crab-eating monkey), UniProt P20333 27-257 (human entry)); assay: SPR Biacore 8K, antibody captured on Protein A chip, fTNFR2-His as analyte
T4 construct: Bought protein; also called fTNFR2-His; not shown: His tag
T4 chain: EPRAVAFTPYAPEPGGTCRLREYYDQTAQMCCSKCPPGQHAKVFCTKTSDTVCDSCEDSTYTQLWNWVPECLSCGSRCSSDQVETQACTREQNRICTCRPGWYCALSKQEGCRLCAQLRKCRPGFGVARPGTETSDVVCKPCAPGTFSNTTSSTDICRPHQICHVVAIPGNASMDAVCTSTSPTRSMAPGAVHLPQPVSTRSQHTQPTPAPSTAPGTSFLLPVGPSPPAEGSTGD
Experimental: Purified anti-TNFR2 antibodies were diluted to 1 μg/mL and then injected into the Biacore 8K biosensor at 10 μL/min for about 50 seconds to achieve a desired protein density (e.g., about 50 response units (RU)). […] Dissociation was monitored for 600 seconds. The chip was regenerated after the last injection of each titration with Glycine (pH 2.0, 30 μL/min for 30 seconds).
Similar to the aforementioned binding affinity experiment, the binding affinities of the anti-TNFR2 antibodies BC-1B6-IgG1, BC-1C3-IgG1 and BC-1F4-IgG1 to His-tagged monkey (Crab-eating monkey) TNFR2 (fTNFR2-His, Sino Biological, Cat #: 90102-C08H) were measured.

percentage of tested cells that had Streptavidin signals [1]	percentage of tested cells that had Streptavidin signals [2]	percentage of tested cells that had Streptavidin signals [3]	positive rate of binding (% of cells) [4]	positive rate of binding (% of cells) [5]	Kd [6]	koff [6]	kon [6]	Binder
29.9%	12%	62.8%	29.4%	64.6%	–	–	–	B1
59.5%	18.5%	84.6%	21.3%	53.1%	20.1 nM	0.0109 s⁻¹	541000 M⁻¹ s⁻¹	B2
54.5%	51.9%	59%	38.3%	55.3%	–	–	–	B3
81.5%	71.1%	77%	1.85%	72.6%	118 nM	0.0221 s⁻¹	187000 M⁻¹ s⁻¹	B4
87.2%	75.1%	78.9%	–	–	17.5 nM	0.00547 s⁻¹	313000 M⁻¹ s⁻¹	B5
